Data on 14 molecules can be found in patent publication USRE47150 (Bayer, dated 2018).

For experiment [1], the target named is T1, human tissue factor pathway inhibitor (TFPI) (human, UniProt P10646 29-304, limits assumed).
T1 construct: bought; also called hTFPI; human TFPI
T1 sequence (looked up): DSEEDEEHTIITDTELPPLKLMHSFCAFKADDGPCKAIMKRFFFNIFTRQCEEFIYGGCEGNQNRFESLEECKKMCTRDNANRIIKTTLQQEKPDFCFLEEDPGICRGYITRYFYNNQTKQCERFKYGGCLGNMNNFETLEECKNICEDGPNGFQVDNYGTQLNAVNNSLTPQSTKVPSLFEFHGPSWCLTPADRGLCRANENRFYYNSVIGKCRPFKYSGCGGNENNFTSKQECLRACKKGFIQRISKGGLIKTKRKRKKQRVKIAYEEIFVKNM
As to the kind of experiment: competitive ELISA. (An ELISA detects its analyte on a solid surface through an enzyme-linked reagent.)

In experiment [2] the target is T2, mouse tissue factor pathway inhibitor (TFPI) (mouse, UniProt O54819 29-289, limits assumed).
T2 construct: bought; also called mTFPI; murine TFPI
T2 sequence (looked up): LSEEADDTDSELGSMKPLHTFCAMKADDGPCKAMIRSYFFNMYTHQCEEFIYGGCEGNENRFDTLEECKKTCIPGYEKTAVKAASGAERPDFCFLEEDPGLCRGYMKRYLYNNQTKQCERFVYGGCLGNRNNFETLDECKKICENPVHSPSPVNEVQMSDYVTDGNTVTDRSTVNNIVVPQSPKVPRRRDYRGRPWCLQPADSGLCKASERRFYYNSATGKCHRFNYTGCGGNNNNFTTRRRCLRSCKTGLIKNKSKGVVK
The experiment in a line: equilibrium ELISA.

For experiment [3], the target named is T2, mouse tissue factor pathway inhibitor …. As to the kind of experiment: competitive ELISA.
Experiment [4] deals with T1, human tissue factor pathway inhibitor …. As to the kind of experiment: competitive ELISA. The source holds these as a separate data set.

B1: 4B7 HC_D62I (Fab, V domains shown)
VH: QVQLQQSGPGLVKPSQTLSLTCAISGDSVSSNSAAWSWIRQSPGRGLEWLGIIYKRSKWYNIYAVSVKSRITINPDTSKNQFSLQLNSVTPEDTAVYYCARWHSDKHWGFDYWGQGTLVTVSS
VL: DIVMTQSPLSLPVTPGEPASISCRSSQSLVFSDGNTYLNWYLQKPGQSPQLLIYKGSNRASGVPDRFSGSGSGTDFTLKISRVEAEDVGVYYCQQYDSYPLTFGQGTKVEIKR
Regarding B1, the variant/wild-type was 9.8 ratio in experiment [1] and 44.4 ratio in experiment [2].

B2: 4B7 HC_S57R (Fab, V domains shown)
VH: QVQLQQSGPGLVKPSQTLSLTCAISGDSVSSNSAAWSWIRQSPGRGLEWLGIIYKRRKWYNDYAVSVKSRITINPDTSKNQFSLQLNSVTPEDTAVYYCARWHSDKHWGFDYWGQGTLVTVSS
VL: DIVMTQSPLSLPVTPGEPASISCRSSQSLVFSDGNTYLNWYLQKPGQSPQLLIYKGSNRASGVPDRFSGSGSGTDFTLKISRVEAEDVGVYYCQQYDSYPLTFGQGTKVEIKR
B2 yielded a variant/wild-type in experiment [1] of 2 ratio.

B3: 2A8 HC S35D+S55R+K99L/LC Y48F+N51V+S89A+D91W+D92S+G93S+V94T+P95A (Fab, V domains shown)
VH: QVQLVESGGGLVQPGGSLRLSCAASGFTFRSYGMDWVRQAPGKGLEWVSSIRGSRSSTYYADSVKGRFTISRDNSKNTLYLQMNSLRAEDTAVYYCARLYRYWFDYWGQGTLVTVSS
VL: DIELTQPPSVSVAPGQTARISCSGDNLRNYYAHWYQQKPGQAPVVVIFYDVNRPSGIPERFSGSNSGNTATLTISGTQAEDEADYYCQAWWSSTAVFGGGTKLTVLG
On to B3, for which the variant/HC_K99L in experiment [3] was determined as 9 ratio; in experiment [4] it was 10.9 ratio.

B4: 2A8 HC Q1E+S31V+S50A+I51D+S55R+S56G+K99V/LC D1S+I2Y+A13S+S21T+R28P+N29K+Y48F+N51S+E80M+D91L+D92S+V94T+V96W (Fab, V domains shown)
VH: EVQLVESGGGLVQPGGSLRLSCAASGFTFRVYGMSWVRQAPGKGLEWVSADRGSRGSTYYADSVKGRFTISRDNSKNTLYLQMNSLRAEDTAVYYCARVYRYWFDYWGQGTLVTVSS
VL: SYELTQPPSVSVSPGQTARITCSGDNLPKYYAHWYQQKPGQAPVVVIFYDSNRPSGIPERFSGSNSGNTATLTISGTQAMDEADYYCQSWLSGTPWFGGGTKLTVLG
B4: the variant/HC_K99L in experiment [3] stood at 7.1 ratio; in experiment [4], 11.4 ratio.

B5: 2A8 HC Q1E+R30S+S35D+S55R+S56G+K99L/LC D1S+I2Y+A13S+S21T+R28P+Y48F+N51V+E80M+D91W (Fab, V domains shown)
VH: EVQLVESGGGLVQPGGSLRLSCAASGFTFSSYGMDWVRQAPGKGLEWVSSIRGSRGSTYYADSVKGRFTISRDNSKNTLYLQMNSLRAEDTAVYYCARLYRYWFDYWGQGTLVTVSS
VL: SYELTQPPSVSVSPGQTARITCSGDNLPNYYAHWYQQKPGQAPVVVIFYDVNRPSGIPERFSGSNSGNTATLTISGTQAMDEADYYCQSWWDGVPVFGGGTKLTVLG
Regarding B5, the variant/HC_K99L in experiment [3] worked out at 15.1 ratio; in experiment [4] it was 18.7 ratio.

B6: 2A8 HC S31V+I51D+S55R+K99V/LC D1S+I2Y+A13S+S21T+R28P+N29K+Y48F+E80M+D91L+D92S+V94T+V96W (Fab, V domains shown)
VH: QVQLVESGGGLVQPGGSLRLSCAASGFTFRVYGMSWVRQAPGKGLEWVSSDRGSRSSTYYADSVKGRFTISRDNSKNTLYLQMNSLRAEDTAVYYCARVYRYWFDYWGQGTLVTVSS
VL: SYELTQPPSVSVSPGQTARITCSGDNLPKYYAHWYQQKPGQAPVVVIFYDNNRPSGIPERFSGSNSGNTATLTISGTQAMDEADYYCQSWLSGTPWFGGGTKLTVLG
With B6, the results for the variant/HC_K99L in experiment [3] and in experiment [4] were 15.4 ratio and 18 ratio, respectively.

B7: 2A8 HC Q1E+R30S+S35D+S55R+S56G+K99L/LC D1S+I2Y+A13S+S21T+R28P+N29K+Y48F+N51V+E80M+D91W (Fab, V domains shown)
VH: EVQLVESGGGLVQPGGSLRLSCAASGFTFSSYGMDWVRQAPGKGLEWVSSIRGSRGSTYYADSVKGRFTISRDNSKNTLYLQMNSLRAEDTAVYYCARLYRYWFDYWGQGTLVTVSS
VL: SYELTQPPSVSVSPGQTARITCSGDNLPKYYAHWYQQKPGQAPVVVIFYDVNRPSGIPERFSGSNSGNTATLTISGTQAMDEADYYCQSWWDGVPVFGGGTKLTVLG
Consider B7, for which the variant/HC_K99L was 15.5 ratio in experiment [3] and 19.8 ratio in experiment [4].

B8: 2A8 HC S35D+S55R+K99L/LC D1S+I2Y+A13S+S21T+R28P+N29K+Y48F+N51V+E80M+S89A+D91W+D92S+G93S+V94T (Fab, V domains shown)
VH: QVQLVESGGGLVQPGGSLRLSCAASGFTFRSYGMDWVRQAPGKGLEWVSSIRGSRSSTYYADSVKGRFTISRDNSKNTLYLQMNSLRAEDTAVYYCARLYRYWFDYWGQGTLVTVSS
VL: SYELTQPPSVSVSPGQTARITCSGDNLPKYYAHWYQQKPGQAPVVVIFYDVNRPSGIPERFSGSNSGNTATLTISGTQAMDEADYYCQAWWSSTPVFGGGTKLTVLG
As to B8, the variant/HC_K99L in experiment [3] was 16.8 ratio; in experiment [4] it was 21.4 ratio.

B9: 2A8 HC Q1E+R30S+S35D+S55R+S56G+K99L/LC D1S+I2Y+A13S+S21T+R28P+Y48F+N51V+E80M+S89A+D91W+D92S+G93S+V94T (Fab, V domains shown)
VH: EVQLVESGGGLVQPGGSLRLSCAASGFTFSSYGMDWVRQAPGKGLEWVSSIRGSRGSTYYADSVKGRFTISRDNSKNTLYLQMNSLRAEDTAVYYCARLYRYWFDYWGQGTLVTVSS
VL: SYELTQPPSVSVSPGQTARITCSGDNLPNYYAHWYQQKPGQAPVVVIFYDVNRPSGIPERFSGSNSGNTATLTISGTQAMDEADYYCQAWWSSTPVFGGGTKLTVLG
For B9, the values for the variant/HC_K99L in experiment [3] and in experiment [4] were 12.3 ratio and 18.8 ratio, respectively.

B10: 2A8 HC S31V+I51D+S55R+K99V/LC D1S+I2Y+A13S+S21T+R28P+N29K+Y48F+Y49R+N51S+E80M+D91L+D92S+V94T+V96W (Fab, V domains shown)
VH: QVQLVESGGGLVQPGGSLRLSCAASGFTFRVYGMSWVRQAPGKGLEWVSSDRGSRSSTYYADSVKGRFTISRDNSKNTLYLQMNSLRAEDTAVYYCARVYRYWFDYWGQGTLVTVSS
VL: SYELTQPPSVSVSPGQTARITCSGDNLPKYYAHWYQQKPGQAPVVVIFRDSNRPSGIPERFSGSNSGNTATLTISGTQAMDEADYYCQSWLSGTPWFGGGTKLTVLG
As to B10, the variant/HC_K99L worked out at 2.4 ratio in experiment [3] and 2.2 ratio in experiment [4].

B11: 2A8 HC Q1E+S31V+S50A+I51D+S55R+S56G+K99V/LC D1S+I2Y+A13S+S21T+R28P+N29K+Y48F+E80M+D91L+D92S+V94T+V96W (Fab, V domains shown)
VH: EVQLVESGGGLVQPGGSLRLSCAASGFTFRVYGMSWVRQAPGKGLEWVSADRGSRGSTYYADSVKGRFTISRDNSKNTLYLQMNSLRAEDTAVYYCARVYRYWFDYWGQGTLVTVSS
VL: SYELTQPPSVSVSPGQTARITCSGDNLPKYYAHWYQQKPGQAPVVVIFYDNNRPSGIPERFSGSNSGNTATLTISGTQAMDEADYYCQSWLSGTPWFGGGTKLTVLG
With B11, the variant/HC_K99L in experiment [3] worked out at 5.9 ratio; in experiment [4], 9.8 ratio.

B12: 2A8 HC S35D+S56G+K99L/LC Y48F+D91L+V96W (Fab, V domains shown)
VH: QVQLVESGGGLVQPGGSLRLSCAASGFTFRSYGMDWVRQAPGKGLEWVSSIRGSSGSTYYADSVKGRFTISRDNSKNTLYLQMNSLRAEDTAVYYCARLYRYWFDYWGQGTLVTVSS
VL: DIELTQPPSVSVAPGQTARISCSGDNLRNYYAHWYQQKPGQAPVVVIFYDNNRPSGIPERFSGSNSGNTATLTISGTQAEDEADYYCQSWLDGVPWFGGGTKLTVLG
For B12, the variant/HC_K99L in experiment [3] turned out to be 16.9 ratio; in experiment [4] it was 17.8 ratio.

B13: 2A8 HC S35L+S54F+K99V/LC Y48F+D91K (Fab, V domains shown)
VH: QVQLVESGGGLVQPGGSLRLSCAASGFTFRSYGMLWVRQAPGKGLEWVSSIRGFSSSTYYADSVKGRFTISRDNSKNTLYLQMNSLRAEDTAVYYCARVYRYWFDYWGQGTLVTVSS
VL: DIELTQPPSVSVAPGQTARISCSGDNLRNYYAHWYQQKPGQAPVVVIFYDNNRPSGIPERFSGSNSGNTATLTISGTQAEDEADYYCQSWKDGVPVFGGGTKLTVLG
Consider B13, for which the variant/HC_K99L was 3.1 ratio in experiment [3] and 5 ratio in experiment [4].

B14: 2A8 HC S35D+S55R+S56G+K99L/LC Y48F+N51V+D91W (Fab, V domains shown)
VH: QVQLVESGGGLVQPGGSLRLSCAASGFTFRSYGMDWVRQAPGKGLEWVSSIRGSRGSTYYADSVKGRFTISRDNSKNTLYLQMNSLRAEDTAVYYCARLYRYWFDYWGQGTLVTVSS
VL: DIELTQPPSVSVAPGQTARISCSGDNLRNYYAHWYQQKPGQAPVVVIFYDVNRPSGIPERFSGSNSGNTATLTISGTQAEDEADYYCQSWWDGVPVFGGGTKLTVLG
Consider B14, for which the variant/HC_K99L in experiment [3] is 18.7 ratio; in experiment [4], 21.4 ratio.
